According to paper doi:10.1101/2025.06.25.661420:

Biological target: SUMO fusion of the glycophorin A TM domain
Test: SEC

“SUMO fusion of the glycophorin A TM domain (domain or fragment)” was tested. Which stoichiometry N did it give?
Its stoichiometry N is 2.
